The values below come from article PMC12282641.

Data set [1] in a line: GCaMP6s imaging, 100 AP 10 Hz. The conditions noted are these: glycan lost; control: WT-HK1-BFP.
Data set [2] in a line: anti-HK1 blot of HEK293T lysates. The conditions noted are these: glycan lost; control: WT-HK1.
Data set [3] can be described thus: HYlight FBP sensor, axons, 100 AP 10 Hz. The conditions noted are these: glycan lost; control: WT-HK1-FLAG.
Data set [4] in a line: multi-electrode array, rat cortical neurons. The conditions noted are these: glycan lost; control: WT-HK1.
The nature of data set [5]: fractionation blots for Aldo A, PGK, PKM2, HEK293T. The conditions noted are these: glycan lost; control: WT-HK1 cells, response to OGT + Thiamet-G.
Data set [6] is described as follows: iATPSnFR1.0 imaging, hippocampal neurons, 100 AP 10 Hz. The settings on record: glycan lost; control: WT-HK1-BFP.

B1: Hexokinase 1 (HK1): T259A (protein)
parent chain: MIAAQLLAYYFTELKDDQVKKIDKYLYAMRLSDETLIDIMTRFRKEMKNGLSRDFNPTATVKMLPTFVRSIPDGSEKGDFIALDLGGSSFRILRVQVNHEKNQNVHMESEVYDTPENIVHGSGSQLFDHVAECLGDFMEKRKIKDKKLPVGFTFSFPCQQSKIDEAILITWTKRFKASGVEGADVVKLLNKAIKKRGDYDANIVAVVNDTVGTMMTCGYDDQHCEVGLIIGTGTNACYMEELRHIDLVEGDEGRMCINTEWGAFGDDGSLEDIRTEFDREIDRGSLNPGKQLFEKMVSGMYLGELVRLILVKMAKEGLLFEGRITPELLTRGKFNTSDVSAIEKNKEGLHNAKEILTRLGVEPSDDDCVSVQHVCTIVSFRSANLVAATLGAILNRLRDNKGTPRLRTTVGVDGSLYKTHPQYSRRFHKTLRRLVPDSDVRFLLSESGSGKGAAMVTAVAYRLAEQHRQIEETLAHFHLTKDMLLEVKKRMRAEMELGLRKQTHNNAVVKMLPSFVRRTPDGTENGDFLALDLGGTNFRVLLVKIRSGKKRTVEMHNKIYAIPIEIMQGTGEELFDHIVSCISDFLDYMGIKGPRMPLGFTFSFPCQQTSLDAGILITWTKGFKATDCVGHDVVTLLRDAIKRREEFDLDVVAVVNDTVGTMMTCAYEEPTCEVGLIVGTGSNACYMEEMKNVEMVEGDQGQMCINMEWGAFGDNGCLDDIRTHYDRLVDEYSLNAGKQRYEKMISGMYLGEIVRNILIDFTKKGFLFRGQISETLKTRGIFETKFLSQIESDRLALLQVRAILQQLGLNSTCDDSILVKTVCGVVSRRAAQLCGAGMAAVVDKIRENRGLDRLNVTVGVDGTLYKLHPHFSRIMHQTVKELSPKCNVSFLLSEDGSGKGAALITAVGVRLRTEASS
In the case of B1, the “other: presynaptic calcium dynamics” value in data set [1] is listed as “no change”. Moreover, the expression_or_secretion entry in data set [2] is given as “no change”. Besides, the “other: activity-evoked glycolysis (FBP level)” value in data set [3] was “abolishes”. Besides, in data set [4], the “other: neuronal network activity” value is reported as “decreases”. The “other: glycolytic enzyme recruitment to mitochondria” value in data set [5] is “abolishes”. Moreover, in data set [6], the “other: axonal ATP recovery after stimulation” value is listed as “abolishes”.
